One assay concerns the target CD155 (Homo sapiens) (UniProt P15151). The settings on record: cited from earlier work.
For assay [1], the target named is nectin-1(346t) (human) (UniProt Q15223). Kind of assay: SPR; BIAcore 3000, 25°C, HBS-EP pH 7.4; about 2000 RU of nectin-1(346t) or nectin-1(143t) amine-coupled to a CM5 chip; hCD96t flowed at 50 ul/min, 2 min association and 2 min dissociation; 1:1 Langmuir model with drifting baseline, global fit. (SPR reads the build-up and loss of mass on a sensor chip optically.)

Assay [2] shares this target. Described as above. The source holds these as a separate data set.
A further assay has as its target nectin-1(143t) (human). Described as above.
The target of another assay is nectin-1 (Homo sapiens) (UniProt Q15223). The note with it: cited from earlier work.

For three substances, Kd, koff and kon results are on record in article PMC6373967.

The Kd is the concentration at which binding is half-saturated. Usually koff stands for the rate constant with which the complex falls apart. Low values mean slow dissociation, high ones fast dissociation. For orientation: kon means the rate constant with which the complex forms.

Where two headings read alike, the source gives them in different places.

Chain of nectin-1 (Q15223 31-355): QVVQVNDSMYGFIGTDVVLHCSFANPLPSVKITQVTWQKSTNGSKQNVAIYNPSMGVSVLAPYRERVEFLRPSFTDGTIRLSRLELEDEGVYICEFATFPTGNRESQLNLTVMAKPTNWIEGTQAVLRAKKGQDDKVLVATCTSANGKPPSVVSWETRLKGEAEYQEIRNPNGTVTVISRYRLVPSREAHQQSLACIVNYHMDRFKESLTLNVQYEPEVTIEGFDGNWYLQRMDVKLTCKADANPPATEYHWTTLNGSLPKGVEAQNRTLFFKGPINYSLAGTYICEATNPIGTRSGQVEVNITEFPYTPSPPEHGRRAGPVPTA
Chain of UniProt P15151 (P15151 21-343): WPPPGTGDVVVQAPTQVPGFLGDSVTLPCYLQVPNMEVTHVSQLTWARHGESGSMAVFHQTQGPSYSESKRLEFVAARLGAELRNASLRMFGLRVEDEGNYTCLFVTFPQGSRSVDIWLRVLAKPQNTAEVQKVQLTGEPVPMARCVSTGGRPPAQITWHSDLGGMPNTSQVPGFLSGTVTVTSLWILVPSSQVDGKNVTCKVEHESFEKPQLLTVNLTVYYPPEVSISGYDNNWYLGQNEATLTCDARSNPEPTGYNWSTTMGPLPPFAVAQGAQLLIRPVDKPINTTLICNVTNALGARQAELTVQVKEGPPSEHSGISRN

On to CD96 (from UniProt P40200), for which the Kd with CD155 (Homo sapiens) was 37.6 nM.

With hCD96(516t) (domain or fragment), in the assay with nectin-1(346t) (human) [1], the Kd is 2340 nM. Besides, in the assay with nectin-1(346t) (human) [2], the Kd turned out to be 2430 nM, the koff was 0.0094 s⁻¹ and the kon is 3900 M⁻¹ s⁻¹. Further, in the assay with nectin-1(143t) (human), the Kd is 3220 nM, the koff came to 0.012 s⁻¹ and the kon turned out to be 3200 M⁻¹ s⁻¹.

Take nectin-1 (from UniProt Q15223): the Kd with nectin-1 (Homo sapiens) was 17500 nM.
